In the MegaScale stability set (Tsuboyama et al. 2023):

B1: HHH_rd1_0493 (parent)
chain: RDEDEKEKIKEALKRGNEDKAKEIAKRANVSPEEYERLRKEAE

Variants of: B1
Experiment: folding stability dG (cDNA display proteolysis); higher = more stable
Settings: PBS, room temperature

**Q.** For RDEDEKEKIKEALKRGNEDKAKEIAKRANVSREEYERLRKEAE, which “folding stability dG” value is on record?
**A.** Its value is 2.73 kcal/mol.

**Q.** Which “folding stability dG” value does the source give for RDEDEKEKIKEALKRGNEDKAKEIAKRANVSHEEYERLRKEAE here?
**A.** Its value is 2.7 kcal/mol.

**Q.** With RDEDEKEKIKEALKRGNEDKAKEIAKRANVSNEEYERLRKEAE as the variant, how does the “folding stability dG” value read?
**A.** Its value is 2.63 kcal/mol.

**Q.** With RDEDEKEKIKEALKRGNEDKAKEIAKRANVSSEEYERLRKEAE as the variant, how does the “folding stability dG” value read?
**A.** Its value is 2.67 kcal/mol.

**Q.** With RDEDEKEKIKEALKRGNEDKAKEIAKRANVSMEEYERLRKEAE as the variant, how does the “folding stability dG” value read?
**A.** The value was 2.79 kcal/mol.

**Q.** Which “folding stability dG” value does the source give for RDEDEKEKIKEALKRGNEDKAKEIAKRANVSYEEYERLRKEAE here?
**A.** The value was 2.7 kcal/mol.

**Q.** Which “folding stability dG” value does the source give for RDEDEKEKIKEALKRGNEDKAKEIAKRANVSLEEYERLRKEAE here?
**A.** The value was 2.83 kcal/mol.

**Q.** For RDEDEKEKIKEALKRGNEDKAKEIAKRANVSVEEYERLRKEAE, which “folding stability dG” value is on record?
**A.** The value was 2.74 kcal/mol.

**Q.** With RDEDEKEKIKEALKRGNEDKAKEIAKRANVSDEEYERLRKEAE as the variant, how does the “folding stability dG” value read?
**A.** The value was 3.02 kcal/mol.

**Q.** With RDEDEKEKIKEALKRGNEDKAKEIAKRANVSQEEYERLRKEAE as the variant, how does the “folding stability dG” value read?
**A.** Its value is 2.8 kcal/mol.

**Q.** For RDEDEKEKIKEALKRGNEDKAKEIAKRANVSAEEYERLRKEAE, which “folding stability dG” value is on record?
**A.** The value was 3.03 kcal/mol.

**Q.** Which “folding stability dG” value does the source give for RDEDEKEKIKEALKRGNEDKAKEIAKRANVSKEEYERLRKEAE here?
**A.** The value was 2.65 kcal/mol.

**Q.** For RDEDEKEKIKEALKRGNEDKAKEIAKRANVSCEEYERLRKEAE, which “folding stability dG” value is on record?
**A.** The value was 2.07 kcal/mol.

**Q.** With RDEDEKEKIKEALKRGNEDKAKEIAKRANVSFEEYERLRKEAE as the variant, how does the “folding stability dG” value read?
**A.** Its value is 2.76 kcal/mol.

**Q.** With RDEDEKEKIKEALKRGNEDKAKEIAKRANVSIEEYERLRKEAE as the variant, how does the “folding stability dG” value read?
**A.** Its value is 2.77 kcal/mol.

**Q.** Which “folding stability dG” value does the source give for RDEDEKEKIKEALKRGNEDKAKEIAKRANVSGEEYERLRKEAE here?
**A.** Its value is 2.37 kcal/mol.

**Q.** Which “folding stability dG” value does the source give for RDEDEKEKIKEALKRGNEDKAKEIAKRANVSWEEYERLRKEAE here?
**A.** Its value is 2.92 kcal/mol.

**Q.** For RDEDEKEKIKEALKRGNEDKAKEIAKRANVSEEEYERLRKEAE, which “folding stability dG” value is on record?
**A.** The value was 2.85 kcal/mol.

**Q.** Which “folding stability dG” value does the source give for RDEDEKEKIKEALKRGNEDKAKEIAKRANVSTEEYERLRKEAE here?
**A.** The value was 2.61 kcal/mol.

**Q.** For RDEDEKEKIKEALKRGNEDKAKEIAKRANVSPEEYPRLRKEAE, which “folding stability dG” value is on record?
**A.** The value was 0.261 kcal/mol.

**Q.** Which “folding stability dG” value does the source give for RDEDEKEKIKEALKRGNEDKAKEIAKRANVSPEEYIRLRKEAE here?
**A.** The value was 1.88 kcal/mol.

**Q.** Which “folding stability dG” value does the source give for RDEDEKEKIKEALKRGNEDKAKEIAKRANVSPEEYLRLRKEAE here?
**A.** The value was 2.24 kcal/mol.

**Q.** For RDEDEKEKIKEALKRGNEDKAKEIAKRANVSPEEYDRLRKEAE, which “folding stability dG” value is on record?
**A.** Its value is 2.7 kcal/mol.

**Q.** Which “folding stability dG” value does the source give for RDEDEKEKIKEALKRGNEDKAKEIAKRANVSPEEYNRLRKEAE here?
**A.** Its value is 2.19 kcal/mol.

**Q.** Which “folding stability dG” value does the source give for RDEDEKEKIKEALKRGNEDKAKEIAKRANVSPEEYGRLRKEAE here?
**A.** Its value is 1.13 kcal/mol.

**Q.** With RDEDEKEKIKEALKRGNEDKAKEIAKRANVSPEEYARLRKEAE as the variant, how does the “folding stability dG” value read?
**A.** The value was 2.31 kcal/mol.

**Q.** Which “folding stability dG” value does the source give for RDEDEKEKIKEALKRGNEDKAKEIAKRANVSPEEYMRLRKEAE here?
**A.** Its value is 2.24 kcal/mol.

**Q.** With RDEDEKEKIKEALKRGNEDKAKEIAKRANVSPEEYQRLRKEAE as the variant, how does the “folding stability dG” value read?
**A.** Its value is 2.11 kcal/mol.

**Q.** Which “folding stability dG” value does the source give for RDEDEKEKIKEALKRGNEDKAKEIAKRANVSPEEYFRLRKEAE here?
**A.** Its value is 1.6 kcal/mol.

**Q.** For RDEDEKEKIKEALKRGNEDKAKEIAKRANVSPEEYWRLRKEAE, which “folding stability dG” value is on record?
**A.** Its value is 1.68 kcal/mol.

**Q.** With RDEDEKEKIKEALKRGNEDKAKEIAKRANVSPEEYTRLRKEAE as the variant, how does the “folding stability dG” value read?
**A.** The value was 1.7 kcal/mol.

**Q.** Which “folding stability dG” value does the source give for RDEDEKEKIKEALKRGNEDKAKEIAKRANVSPEEYVRLRKEAE here?
**A.** Its value is 1.5 kcal/mol.

**Q.** With RDEDEKEKIKEALKRGNEDKAKEIAKRANVSPEEYCRLRKEAE as the variant, how does the “folding stability dG” value read?
**A.** Its value is 2.86 kcal/mol.

**Q.** Which “folding stability dG” value does the source give for RDEDEKEKIKEALKRGNEDKAKEIAKRANVSPEEYSRLRKEAE here?
**A.** The value was 1.75 kcal/mol.

**Q.** Which “folding stability dG” value does the source give for RDEDEKEKIKEALKRGNEDKAKEIAKRANVSPEEYRRLRKEAE here?
**A.** The value was 1.67 kcal/mol.

**Q.** For RDEDEKEKIKEALKRGNEDKAKEIAKRANVSPEEYHRLRKEAE, which “folding stability dG” value is on record?
**A.** The value was 1.75 kcal/mol.

**Q.** Which “folding stability dG” value does the source give for RDEDEKEKIKEALKRGNEDKAKEIAKRANVSPEEYKRLRKEAE here?
**A.** The value was 1.49 kcal/mol.

**Q.** Which “folding stability dG” value does the source give for RDEDEKEKIKEALKRGNEDKAKEIAKRANVSPEEYYRLRKEAE here?
**A.** Its value is 1.52 kcal/mol.

**Q.** Which “folding stability dG” value does the source give for RDEDEKEKIKEALKRGNEDKAKEIAKRANVLPEEYERLRKEAE here?
**A.** Its value is 2.21 kcal/mol.

**Q.** For RDEDEKEKIKEALKRGNEDKAKEIAKRANVMPEEYERLRKEAE, which “folding stability dG” value is on record?
**A.** Its value is 2.11 kcal/mol.

**Q.** With RDEDEKEKIKEALKRGNEDKAKEIAKRANVPPEEYERLRKEAE as the variant, how does the “folding stability dG” value read?
**A.** Its value is 2.65 kcal/mol.

**Q.** For RDEDEKEKIKEALKRGNEDKAKEIAKRANVYPEEYERLRKEAE, which “folding stability dG” value is on record?
**A.** Its value is 1.3 kcal/mol.

**Q.** For RDEDEKEKIKEALKRGNEDKAKEIAKRANVRPEEYERLRKEAE, which “folding stability dG” value is on record?
**A.** The value was 1.87 kcal/mol.

**Q.** Which “folding stability dG” value does the source give for RDEDEKEKIKEALKRGNEDKAKEIAKRANVWPEEYERLRKEAE here?
**A.** Its value is 1.27 kcal/mol.

**Q.** With RDEDEKEKIKEALKRGNEDKAKEIAKRANVNPEEYERLRKEAE as the variant, how does the “folding stability dG” value read?
**A.** Its value is 2.39 kcal/mol.

**Q.** Which “folding stability dG” value does the source give for RDEDEKEKIKEALKRGNEDKAKEIAKRANVVPEEYERLRKEAE here?
**A.** The value was 1.66 kcal/mol.

**Q.** For RDEDEKEKIKEALKRGNEDKAKEIAKRANVQPEEYERLRKEAE, which “folding stability dG” value is on record?
**A.** Its value is 2.19 kcal/mol.

**Q.** With RDEDEKEKIKEALKRGNEDKAKEIAKRANVTPEEYERLRKEAE as the variant, how does the “folding stability dG” value read?
**A.** The value was 3.03 kcal/mol.

**Q.** For RDEDEKEKIKEALKRGNEDKAKEIAKRANVSPEEYENLRKEAE, which “folding stability dG” value is on record?
**A.** Its value is 2.35 kcal/mol.

**Q.** With RDEDEKEKIKEALKRGNEDKAKEIAKRANVSPEEYEFLRKEAE as the variant, how does the “folding stability dG” value read?
**A.** Its value is 2.15 kcal/mol.

**Q.** With RDEDEKEKIKEALKRGNEDKAKEIAKRANVSPEEYEELRKEAE as the variant, how does the “folding stability dG” value read?
**A.** The value was 2.4 kcal/mol.

**Q.** For RDEDEKEKIKEALKRGNEDKAKEIAKRANVSPEEYEDLRKEAE, which “folding stability dG” value is on record?
**A.** The value was 2.02 kcal/mol.

**Q.** Which “folding stability dG” value does the source give for RDEDEKEKIKEALKRGNEDKAKEIAKRANVSPEEYEALRKEAE here?
**A.** The value was 2.51 kcal/mol.

**Q.** For RDEDEKEKIKEALKRGNEDKAKEIAKRANVSPEEYEGLRKEAE, which “folding stability dG” value is on record?
**A.** Its value is 1.77 kcal/mol.

**Q.** Which “folding stability dG” value does the source give for RDEDEKEKIKEALKRGNEDKAKEIAKRANVSPEEYEPLRKEAE here?
**A.** The value was -0.529 kcal/mol.

**Q.** For RDEDEKEKIKEALKRGNEDKAKEIAKRANVSPEEYEKLRKEAE, which “folding stability dG” value is on record?
**A.** Its value is 2.68 kcal/mol.

**Q.** Which “folding stability dG” value does the source give for RDEDEKEKIKEALKRGNEDKAKEIAKRANVSPEEYEQLRKEAE here?
**A.** Its value is 2.63 kcal/mol.

**Q.** With RDEDEKEKIKEALKRGNEDKAKEIAKRANVSPEEYEHLRKEAE as the variant, how does the “folding stability dG” value read?
**A.** The value was 2.12 kcal/mol.

**Q.** For RDEDEKEKIKEALKRGNEDKAKEIAKRANVSPEEYESLRKEAE, which “folding stability dG” value is on record?
**A.** Its value is 2.27 kcal/mol.
